Experimental findings from paper PMC6426935 are described below.

Experiment [1] concerns the target recombinant Der f 21 with N-terminal 6x-His-tag (Dermatophagoides farinae) (UniProt B2GM84). As to the kind of experiment: SEC-MALS; Superdex S75 increase, 20 mM Tris pH 7.9, 50 mM NaCl; 100 uL loaded at 5 mg/mL. In general terms: In gel filtration, larger molecules generally elute earlier.
Experiment [2] has as its target recombinant Der f 21 with the His-tag cleaved (Dermatophagoides farinae) (UniProt B2GM84). Description: static light scattering; crDer f 21 at 0.25, 1.00 and 1.50 mg/mL.

Take “recombinant Der f 21 with N-terminal 6x-His-tag (from UniProt B2GM84 25-136) (natural protein)”: the stoichiometry N in experiment [1] amounted to 2.

For “recombinant Der f 21 with the His-tag cleaved (from UniProt B2GM84 25-136) (natural protein)”, in experiment [2], the stoichiometry N turned out to be 2.

The stoichiometry N is a count of units in the complex or per binding partner.
